According to paper PMC3229559:

Biological target: PKC-α (UniProt P20444)
Experiment: biotin-peptide pull-down from heart extract
Conditions: reference: non-phosphorylated peptide; sites S179

“syndecan-4 cytoplasmic part, 171-198 (from UniProt O35988) pS179 peptide” was tested, and the “binding against the reference” value was “weaker”.
